Results reported in the DeepSol protein solubility set.

Experiment: soluble on expression in E. coli; label from the status in PepcDB or PDB records
For “MGSDKIHHHHHHMANTPLLITLLPSSGVDLSRWLMAHYGVTYEERPHAPIFHVLALKSWGEGKDGYPLFVHADRTTKTVGCRKIAEFFDPSAPADKTLLPDPDAEPELAAQVDDIVKYSYWTIGGDVVNWSYWNFLKYKWVVWPSLTTKVPWYEKLTCLVAFRLIRFLMYKGLKLDQRVADASLKEILAGFDKFDAMLADGRPYLTGDRMTYADLATAAALGPMILAQGYHGMLPNQAKCPVFMQGIYQQLRQRPTGLFIQRMYDQHRPAQLLQI”, the “soluble on expression in E. coli” value was “not soluble”.
With “MEQRLLAVFDFDGTITRHDSFVPFLKFAFGQRVFSVRMARLVLPSLGYLTKRLSRDELKGRLIKAFLSGVEVQWLQQKAEAFCHSHWKRLMRPAALESIAAEIEKGAIVTLCSASPAMVLQPFADRLKVELIGTNLEVIDGKLTGLIEGSNCRCDSKVARLESVYGPLTQFRVRAWGDTRGDHELLAAAQDAHWRLFHPTWRRGRYKGPVNAKLHNPDGKDGPTR” the “soluble on expression in E. coli” value was “not soluble”.
For “PKYQSTAALLVNRSQDDTAATALNDQQADVGLIYTYKDLITRPVILNKVAKELKSTYPTLTSTALAKMITVSSTTNSQIFSIAVRSTSSQEAKDIANETASVFKNEAVKLMGKTISNVTIVSSGLKNNTPVFPNTK”, the “soluble on expression in E. coli” value was “not soluble”.
In the case of “MTNNDPYHTLINEICALSLISTPERFYESANFKISEVDFTLQYQDRDEGRAVLIYGDMGALPTRNRDAALLALMDINFHMFSGVHSPVFSWNAQTSRVLLMGSVSLERASAEGVLLLMKSFADLANEWREHGFIGQVKTAGAPAEQPVATAAKRESLSASGKFQ”, the “soluble on expression in E. coli” value is reported as “not soluble”.
With “STSGTSVINDKVLQYETFISEVLRRDLQKVLEQRDAVYEKIAQYLQLKNTIQSIQGSGSKELKTDVDLGCNFYVQAHVPDASRIYVAVGYGFFVEFTHVEALKFIEKKTNQLTEYTEVLTKDAAKIKANIRMVLEGLRELQGLKDLPEDRRREVF” the “soluble on expression in E. coli” value was “soluble”.
In the case of “MKSLRFQSVFDIIGPVMIGPSSSHTAGAVRIGKIVSSIFDDTPTEVEFQLFNSFAKTYRGHGTDLALVAGILGMDTDDPEIPNSLEIAHKRGIKIVWTIQKDSNAPHPNTTKITVKNAHKTISVTGISIGGGNIQVTELNGF”, the “soluble on expression in E. coli” value is reported as “not soluble”.
For “MSLSILNSLKNIAFIGFYFIFAVNKMSRADEGRLIHLAKKREREKEDIEQQLRKLEEDKEKCRVGITNKFMANYETVEEVVKSKTYGLVSLDDMKNIQKNEISNRDLQVARGDQSSSTQSKDSQEAREKEEHVAKHTQKRFLSFAFDDEEDEEDAAPIIPKKRVGMDPTVDTSFLPDKEREEFLRKKKESLAAEWRVKQDAEKNEEITVAYAYWDGSSHRKNMKIKKGNTISQCLGRAIEALKKEFTELKSCTAENLMFVKEDLIIPHFYTFQDFIVTKAMGKTGPLFVFDSASDVRIRQDAALDYGESHPAKIVLRSWYEKNKHIYPASRWEPFVPSKKYGRNFDDLSDL”, the “soluble on expression in E. coli” value was “not soluble”.
For “MRLLIITGISGAGKSLVVKYLEDIGFFCVDNLPPLLIGKFAEICLKSRGKISKVALVIDIRGGELFNDLVPELNALKESGIDYEILFLEASDQVLIKRYKESRRIHPLAPEGRLIKGIKTEREILSQIRKNATYIIDTSNLTPRQLKEEILAIFVEGRKFDGMIVNIISFGFKYGIPIECDLVFDVRFIPNPYYIESMKYKTGKDEEVRNYVMSFAETAEFMTKLKDLVDFLIPNYIKEGKSQLVIGVGCTGGRHRSVAISEALFSYLCGREHRVFIDHRDIDKDGRSNRR”, the “soluble on expression in E. coli” value was “soluble”.
With “MSLSYRIDVLLFNKFETLDVFGPVEIFGNLQDDFELNFISSDGGLVESSQKVRVETSLYTRDENIEKILFVPGGSGTREKVNDDNFINFIGNMVKESKYIISVCTGSALLSKAGILNGKRATTNKRSFKWVTEQNEDVLWVKEARWVKDGNIYTSSGVSAGIDMTLGFIEDLIGKEKALEISRSIEYFWNEDSNYDPFSKIYGEGHHHHHH” the “soluble on expression in E. coli” value was “soluble”.
For “MSLKTTFLEFEQPIAELEAKIEELRFVQDDSAVDISEEISRLAAKSQQLTKDLYATLSPWQVAQIARHPQRPYTLDYVREIFTDFHELHGDRTFADDLSIVGGLARFNGQPCMVIGHQKGRDTKERALRNFGMSKPEGYRKAKRLMELADKFGLPIFTFVDTPGAFPGIEAEERGQSEAIGHNLFVMAGLKVPLIATIIGEGGSGGALAIAVGDSVIMLQFATYAVISPEGCASILWKTAEKAPEAAEALGLTAHRLKALGLIDKIVNEPLGGAHRDPKAMATMLKRALAESLRQFQGMKTSELQARRHERLMAYGKFKETGSNEGHHHHHH”, the “soluble on expression in E. coli” value was “not soluble”.
With “MAHHHHHHMAYALVEADSISFSLKPADLCADSPLEYGSPREKETNGLSPCGDKGPLTPFGVRPHLFSKGWWRLVVLSSVPLDSYRAIPKDTWSFTEKGQLKQGSNALLFSYACTVSDRTDITLLLDVHSQRPIPFRIKIFRAGVEGPPVFVSEECVNHLFVPHVAVDVPEKVKNVAYIIEAWLDKEKVEEWERMRRLSQELKFLLAAEAARVKAEMKQQKELQEYHEDPRAFKERLLNQEMGPVENLVPTPLREQMSVSSKKGRPSVDKRRTLSNAAPSRQTIVRTSVTPSTPASAVAVHIDSIDPELVVTYDLRLYFSAKTDVKCVATGKDPLTTMRGLWVHQLILFLGKPLRSPVVAREGSVGSRRILLHLLKNYTRRII” the “soluble on expression in E. coli” value was “not soluble”.
For “MGSDKIHHHHHHMERLQALEAWAARQLGQETVDIAPASADASFRRYFRVTAKGRDYIVMDAPPAHEDCGPFIAVARLFGDAGVHVPEVLAQDLDQGFLLLTDLGHTTYLSALNESTARELYLAANDALIRIQLASRPGVLPDYDRALLTRELMLFPEWYVAKHLGVELNAAQRATLDTVFERLLTNNLAQPQVYVHRDWHSRNLMVSDPNPGILDFQDAVFGPITYDLASIYRDAYIQWDEERQLDWVIRYWEKARAARLPVAADFGDFWRDFEWMGAQRHLKVLGIFARLYHRDGKDGYLKDMPLVMHYLRSVCGRYDELKPLLLLLDALQDRQPQAGYTF”, the “soluble on expression in E. coli” value was “not soluble”.
With “PLHHLMIGTWTPPGAIFTVQFDDEKLTCKLIKRTEIPQDEPISWMTFDHERKNIYGAAMKKWSSFAVKSPTEIVHEASHPIGGHPRANDADTNTRAIFLLAAKQPPYAVYANPFYKFAGYGNVFSVSETGKLEKNVQNYEYQENTGIHGMVFDPTETYLYSADLTANKLWTHRKLASGEVELVGSVDAPDPGDHPRWVAMHPTGNYLYALMEAGNRICEYVIDPATHMPVYTHHSFPLIPPGIPDRDPETGKGLYRADVCALTFSGKYMFASSRANKFELQGYIAGFKLRDCGSIEKQLFLSPTPTSGGHSNAVSPCPWSDEWMAITDDQEGWLEIYRWKDEFLHRVARVRIPEPGFGMNAIWYD” the “soluble on expression in E. coli” value was “soluble”.
With “CSKPETNVVAQDGSTSAAAAQVETQTAESRYLALVDGYFKDYLKLEPIYATFVGVNDYNTQFGGDLTEEYLKARHDLNTRYLAQVKTIDLDELPADLQLSYSLFVYDREMALVDETYPSRFMPISQFYSTVITMVQLGSGESAQPFNTVQDYRNWEQRVNGFIDWIKLAQHRMDEGIASKVVLPRVLVERIIPQLDAMLTTDASQSIFYSPITHFPEGFSAQDKAELTASYQAMISERLVPTLTGLRDYFKQTYLPKSRATDGWSGLPNGKAWYQHLANSHTTTTMPVDEIHQIGLSEVARILSEMDKVREQVGFKGDLKAFFASLSSEPQYFYSDRQGLIDGYMALKDKINLVLPQYFNVMPKADYVVKPVESFREQSAAGASYEAPAVDGSRPGVFYINTYNLKAQPKWGMTTLSLHEAAPGHHFQIAIKQELTGVPEFQRFSGYTAFEEGWALYAEYLGIEMGLFSDPYQYFGKLSDEMLRAMRLVVDTGLHAKGWSREQAIQYMKDNSPMAESDIVAEVERYMAIPGQALSYKVGQLKILALRERAEKALGDKFDLKAFHDQILTSGSLPMAVMEQKIDRWIAANK” the “soluble on expression in E. coli” value was “not soluble”.
With “MKLTLMFREYCSLCHKMRDELKPFQDEYGFGLEVVDVDENPVLEEKYNELVPVLLAGDEEICHWFLDEDRLKQFLER” the “soluble on expression in E. coli” value was “not soluble”.
For “MYRQALASGEKIFAVAPMIDWTDTRCRFLHRQLSKRALLFTEMIVADAIIHGQREKLLGYHPQEHPVALQLGGSNPAKLAEAVRIAGDYGYDEINLNVGCPSDRVQSGTFGACLMREPEVVAQCISAMKAVAAVPVTVKCRIGVDDQEPETVLPDFLARVVAAGADAVWVHARKAWLQGLSPKENREVPPLDYDLVYRMKRDNPDVFIGINGGIADLDQAGEHLKYVDGVMLGRAAYHNTSILADVDHRIHGEEALQYDWMALRDTMMAYAADYIATGGRLNHVTRHMVGLFQGMPGARRFRQILSSDATRPGAGPEVIEAAFAAIDFNPMKELAG”, the “soluble on expression in E. coli” value was “not soluble”.
With “MAPKKVLLALTSYNDVFYSDGAKTGVFVVEALHPFNTFRKEGFEVDFVSETGKFGWDEHSLAKDFLNGQDETDFKNKDSDFNKTLAKIKTPKEVNADDYQIFFASAGHGTLFDYPKAKDLQDIASEIYANGGVVAAVCHGPAIFDGLTDKKTGRPLIEGKSITGFTDVGETILGVDSILKAKNLATVEDVAKKYGAKYLAPVGPWDDYSITDGRLVTGVNPASAHSTAVRSIDALKN” the “soluble on expression in E. coli” value was “soluble”.
For “MGSDKIHHHHHHMNQIINDNYREFLKKLRERHLKKRKVKDKNKPIAVWMQDDIYRDFSIGKSLTIILRTEGCYYAKEGGCLMCSYLMDSSPEKITAENIINQFNYAIEKYKEKIKDLKDFSVKIFTSGSFLDDREVPKEARNYIFKKLSEFDNLKEVAIESRPEFIDEDKLNEIRKYLDVNVEIGVGIESFNEEIREKAINKGITNEQIIRAIELAKNYNIGIKAYLLIKPLFITEKEAIYDSISSANKCIELGCSRISFCPATVHKGSVMEFFFNKNQYRPPFLWSIIEILKEVKKSNPKALIMCDTSGVGSERGAHNLYNCKCNKLIKERLERFTLTQDINVLNVECECKNIWNAYIEVENKNIVPLGDERKLLL”, the “soluble on expression in E. coli” value was “not soluble”.
In the case of “MPKVYNSIVVDAPVERVWSRIRNFHDFSWAPSLIKSCKKVGGGGGYSVGARRLLNGEFLDTLIAYSEIERRIMYSMDEGPSPVSSGEIYNYVGNLHLLPVTIDDTTFVEWSGSWESASTEAVEYMNTVYRSLLADLAAEFTSESRRSEWIDQLEHHHHHH”, the “soluble on expression in E. coli” value is reported as “soluble”.
For “MSLTIIHPLLASRSAPNYRQSWRLAGVWRRAINLMTESGELLTLHRQGSGFGPGGWVLRRAQFDALCGGLCGNERPQVVAQGIRLGRFTVKQPQRYYLLRITPPAHPQALAVAWMQRAEETGLFGPLALAASDPLPAELRQFRHCFQAALNGVKTDWRHWLGKGPGLTPSHDDTLSGMLLAAWYYGALDARSGRPFFACSDNLQLVTTAVSVSYLRYAAQGYFASPLLHFVHALSCPKRTAAAIDSLLALGHTSGADTLLGFWLGQQLLQGKEGHHHHHH”, the “soluble on expression in E. coli” value was “soluble”.
In the case of “SRMEQVIVKQGKDALTADAVFVSANPLSDSLLKSTEQLERSVMTRFSTMAFSDNGMQLISVRGVDESYPLMGELVLDGNESGRVKPNQLWLDERIMAQLEVTKGDNVTIGDADFTVSGAVLMEPGLSFNPFQQMPAAYIHQSDVEKTGAIQVGSRVQYRLFLKADNAALKQLQDKTELSPSDRWRTQDTASRSNEVFDRTTQ”, the “soluble on expression in E. coli” value is reported as “not soluble”.
For “MKLKELVKQFIPMNYWNTRRKASIIRQQGKVADFWAPILKAYYNGEIERYSLKPKKKLGTQKVIWQYWGQGIDKDELPEIIQICFDSVDRNKNDYQVIRLTDITISEYIDLPDFVWRKREYVQFTRTFFSDLLRVALLSTYGGVWLDATILLTGSIPAVYEKTDFFMYQRSDEEKNKKYWENVYAYYFGWEPNFKVRMLSSILFAQKESEIISTLTDLLLYFWKTQDSLPDYFCFQILFNELVANYRPAENCPIVNDCIPHIIQTKINGTYDDVSFEEALELSNIHKMTYFDAAAMIRLKMVLRLARNALEHHHHHH”, the “soluble on expression in E. coli” value was “soluble”.
